Data: IntAct's records for PubMed 27332895

B1: Aurora kinase C (Homo sapiens), Q9UQB9 (parent)
chain: MSSPRAVVQLGKAQPAGEELATANQTAQQPSSPAMRRLTVDDFEIGRPLGKGKFGNVYLARLKESHFIVALKVLFKSQIEKEGLEHQLRREIEIQAHLQHPNILRLYNYFHDARRVYLILEYAPRGELYKELQKSEKLDEQRTATIIEELADALTYCHDKKVIHRDIKPENLLLGFRGEVKIADFGWSVHTPSLRRKTMCGTLDYLPPEMIEGRTYDEKVDLWCIGVLCYELLVGYPPFESASHSETYRRILKVDVRFPLSMPLGARDLISRLLRYQPLERLPLAQILKHPWVQAHSRRVLPPCAQMAS

Variants of: B1
Settings: with ince_human INCENP

effect of a mutation on the interaction	Variant
disrupting interaction	MSSPRAVVQLGKAQPAGEELATANQTAQQPSSPAMRRLTVDDFEIGRPLGKGKFGNVYLARLKESHFIVALKVLFKSQIEKEGLEHQLRREIEIQAHLQHPNILRLYNYFHDARRVYLILEYAPRGELYKELQKSEKLDEQRTATIIEELADALTYCHDKKVIHRDIKPENLLLGFRGEVKIADFGWSVHTPSLRRKAMCGTLDYLPPEMIEGRTYDEKVDLWCIGVLCYELLVGYPPFESASHSETYRRILKVDVRFPLSMPLGARDLISRLLRYQPLERLPLAQILKHPWVQAHSRRVLPPCAQMAS [T198A]
disrupting interaction	MSSPRAVVQLGKAQPAGEELATANQTAQQPSSPAMRRLTVDDFEIGRPLGKGKFGNVYLARLKESHFIVALKVLFKSQIEKEGLEHQLRREIEIQAHLQHPNILRLYNYFHDARRVYLILEYAPRGELYKELQKSEKLDEQRTATIIEELADALTYCHDKKVIHRDIKPENLLLGFRGEVKIADFGWSVHTPSLRRKTMCGALDYLPPEMIEGRTYDEKVDLWCIGVLCYELLVGYPPFESASHSETYRRILKVDVRFPLSMPLGARDLISRLLRYQPLERLPLAQILKHPWVQAHSRRVLPPCAQMAS [T202A]

Variants of: B1
Settings: with ince_human INCENP
Remark: another data set of the same source

effect of a mutation on the interaction	Variant
disrupting interaction	MSSPRAVVQLGKAQPAGEELATANQTAQQPSSPAMRRLTVDDFEIGRPLGKGKFGNVYLARLKESHFIVALKVLFRSQIEKEGLEHQLRREIEIQAHLQHPNILRLYNYFHDARRVYLILEYAPRGELYKELQKSEKLDEQRTATIIEELADALTYCHDKKVIHRDIKPENLLLGFRGEVKIADFGWSVHTPSLRRKTMCGTLDYLPPEMIEGRTYDEKVDLWCIGVLCYELLVGYPPFESASHSETYRRILKVDVRFPLSMPLGARDLISRLLRYQPLERLPLAQILKHPWVQAHSRRVLPPCAQMAS [K76R]
